Measured values reported in article PMC9486129 (2022).
Blank lines part the entries; values can stand above or below the binder they belong to. Where no end group is shown, it is not given here. [ ]: non-standard residue; d: D form. pY = N[C@@H](Cc1ccc(OP(=O)(O)O)cc1)C(=O)O

Legend:
[1] = target: T1, ZAP-70 tSH2 WT (1–256); assay: Kd1, first site (intrinsic fluorescence titration)
T1 chain: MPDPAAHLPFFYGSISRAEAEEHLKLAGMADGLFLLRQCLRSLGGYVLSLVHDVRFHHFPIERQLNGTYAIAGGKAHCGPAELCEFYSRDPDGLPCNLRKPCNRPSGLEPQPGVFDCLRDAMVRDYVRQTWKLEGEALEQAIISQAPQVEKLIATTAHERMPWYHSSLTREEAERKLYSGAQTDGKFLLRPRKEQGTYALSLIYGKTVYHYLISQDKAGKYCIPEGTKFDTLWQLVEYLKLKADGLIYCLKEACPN

[2] = target: T1, ZAP-70 tSH2 WT (1–256); assay: ITC; Kd2, second site
[3] = target: ITAM-Y2P-ζ3 ITAM3 (Homo sapiens, UniProt P20963, doubly phosphorylated ITAM)
ITAM-Y2P-ζ3 ITAM3, sequence (P20963 128-162): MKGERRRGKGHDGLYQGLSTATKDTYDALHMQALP

Kd [1]: 4.5 nM | Kd [2]: 9800 nM
Binder: NQL[pY]NELNLGRRAE[pY]DVLD [ITAM-Y2P-ζ1 E13A]

Kd [3]: 6.8 nM
B1: ZAP-70 C-SH2 (protein)
chain: WYHSSLTREEAERKLYSGAQTDGKFLLRPRKEQGTYALSLIYGKTVYHYLISQDKAGKYCIPEGTKFDTLWQLVEYLKLKADGLIYCLKEAC
